We go through eleven molecules from patent US20160272683A1 (Novo Nordisk, published 2016).

First the molecules themselves.
T1: human calcitonin receptor (human, UniProt P30988 25-474)
T1 sequence (looked up): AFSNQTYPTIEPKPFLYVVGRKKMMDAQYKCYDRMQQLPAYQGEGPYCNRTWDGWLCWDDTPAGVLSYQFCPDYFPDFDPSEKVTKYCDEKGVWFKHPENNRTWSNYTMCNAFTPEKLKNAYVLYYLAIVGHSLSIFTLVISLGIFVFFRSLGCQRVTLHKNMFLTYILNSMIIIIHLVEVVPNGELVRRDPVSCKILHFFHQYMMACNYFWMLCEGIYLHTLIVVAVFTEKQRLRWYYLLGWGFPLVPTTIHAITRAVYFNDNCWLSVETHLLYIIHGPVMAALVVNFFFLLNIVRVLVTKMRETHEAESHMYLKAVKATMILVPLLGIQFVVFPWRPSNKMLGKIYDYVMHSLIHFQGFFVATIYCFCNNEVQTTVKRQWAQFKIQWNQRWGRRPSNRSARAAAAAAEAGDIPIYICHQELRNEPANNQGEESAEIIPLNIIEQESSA

T2: human amylin 3(a) receptor (human calcitonin receptor co-expressed with RAMP-3) (human, UniProt P30988 25-474; O60896 24-148, limits assumed)
T2 sequence (looked up) 1: T1 sequence (looked up)
T2 sequence (looked up) 2: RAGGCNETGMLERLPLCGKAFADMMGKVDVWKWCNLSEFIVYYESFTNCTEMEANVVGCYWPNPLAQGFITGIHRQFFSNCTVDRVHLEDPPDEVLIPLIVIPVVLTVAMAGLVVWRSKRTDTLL

B1: [N-terminal(C18 diacid-gGlu), des1, 23Y, 30S, 31G]mimylin (peptide)
peptide: {C18 diacid-γGlu}-ASELSTAALGRLSAELHELATYPRTETGSGSP-NH2
SMILES: CC(C)C[C@H](NC(=O)[C@H](C)NC(=O)[C@H](C)NC(=O)[C@@H](NC(=O)[C@H](CO)NC(=O)[C@H](CC(C)C)NC(=O)[C@H](CCC(=O)O)NC(=O)[C@H](CO)NC(=O)[C@H](C)NC(=O)CC[C@H](NC(=O)CCCCCCCCCCCCCCCCC(=O)O)C(=O)O)[C@@H](C)O)C(=O)NCC(=O)N[C@@H](CCCNC(=N)N)C(=O)N[C@@H](CC(C)C)C(=O)N[C@@H](CO)C(=O)N[C@@H](C)C(=O)N[C@@H](CCC(=O)O)C(=O)N[C@@H](CC(C)C)C(=O)N[C@@H](Cc1c[nH]cn1)C(=O)N[C@@H](CCC(=O)O)C(=O)N[C@@H](CC(C)C)C(=O)N[C@@H](C)C(=O)N[C@H](C(=O)N[C@@H](Cc1ccc(O)cc1)C(=O)N1CCC[C@H]1C(=O)N[C@@H](CCCNC(=N)N)C(=O)N[C@H](C(=O)N[C@@H](CCC(=O)O)C(=O)N[C@H](C(=O)NCC(=O)N[C@@H](CO)C(=O)NCC(=O)N[C@@H](CO)C(=O)N1CCC[C@H]1C(N)=O)[C@@H](C)O)[C@@H](C)O)[C@@H](C)O
B2: [des1, 4K(C20 diacid-gGlu), 30S, 31G]mimylin (peptide)
peptide: ASK([γGlu-C20 diacid])LSTAALGRLSAELHELATLPRTETGSGSP-NH2
modifications: N-terminus assumed
SMILES: CC(C)C[C@H](NC(=O)[C@H](C)NC(=O)[C@H](C)NC(=O)[C@@H](NC(=O)[C@H](CO)NC(=O)[C@H](CC(C)C)NC(=O)[C@H](CCCCNC(=O)CC[C@H](NC(=O)CCCCCCCCCCCCCCCCCCC(=O)O)C(=O)O)NC(=O)[C@H](CO)NC(=O)[C@H](C)N)[C@@H](C)O)C(=O)NCC(=O)N[C@@H](CCCNC(=N)N)C(=O)N[C@@H](CC(C)C)C(=O)N[C@@H](CO)C(=O)N[C@@H](C)C(=O)N[C@@H](CCC(=O)O)C(=O)N[C@@H](CC(C)C)C(=O)N[C@@H](Cc1c[nH]cn1)C(=O)N[C@@H](CCC(=O)O)C(=O)N[C@@H](CC(C)C)C(=O)N[C@@H](C)C(=O)N[C@H](C(=O)N[C@@H](CC(C)C)C(=O)N1CCC[C@H]1C(=O)N[C@@H](CCCNC(=N)N)C(=O)N[C@H](C(=O)N[C@@H](CCC(=O)O)C(=O)N[C@H](C(=O)NCC(=O)N[C@@H](CO)C(=O)NCC(=O)N[C@@H](CO)C(=O)N1CCC[C@H]1C(N)=O)[C@@H](C)O)[C@@H](C)O)[C@@H](C)O
B3: [N-terminal(C20 diacid-gGlu), des1, 23Y, 30S, 31G]mimylin (peptide)
peptide: {C20 diacid-γGlu}-ASELSTAALGRLSAELHELATYPRTETGSGSP-NH2
SMILES: CC(C)C[C@H](NC(=O)[C@H](C)NC(=O)[C@H](C)NC(=O)[C@@H](NC(=O)[C@H](CO)NC(=O)[C@H](CC(C)C)NC(=O)[C@H](CCC(=O)O)NC(=O)[C@H](CO)NC(=O)[C@H](C)NC(=O)CC[C@H](NC(=O)CCCCCCCCCCCCCCCCCCC(=O)O)C(=O)O)[C@@H](C)O)C(=O)NCC(=O)N[C@@H](CCCNC(=N)N)C(=O)N[C@@H](CC(C)C)C(=O)N[C@@H](CO)C(=O)N[C@@H](C)C(=O)N[C@@H](CCC(=O)O)C(=O)N[C@@H](CC(C)C)C(=O)N[C@@H](Cc1c[nH]cn1)C(=O)N[C@@H](CCC(=O)O)C(=O)N[C@@H](CC(C)C)C(=O)N[C@@H](C)C(=O)N[C@H](C(=O)N[C@@H](Cc1ccc(O)cc1)C(=O)N1CCC[C@H]1C(=O)N[C@@H](CCCNC(=N)N)C(=O)N[C@H](C(=O)N[C@@H](CCC(=O)O)C(=O)N[C@H](C(=O)NCC(=O)N[C@@H](CO)C(=O)NCC(=O)N[C@@H](CO)C(=O)N1CCC[C@H]1C(N)=O)[C@@H](C)O)[C@@H](C)O)[C@@H](C)O
B4: [N-terminal(C20 diacid-gGlu), 1A, 23Y, 30S, 31G]mimylin (peptide)
peptide: {C20 diacid-γGlu}-AASELSTAALGRLSAELHELATYPRTETGSGSP-NH2
SMILES: CC(C)C[C@H](NC(=O)[C@H](C)NC(=O)[C@H](C)NC(=O)[C@@H](NC(=O)[C@H](CO)NC(=O)[C@H](CC(C)C)NC(=O)[C@H](CCC(=O)O)NC(=O)[C@H](CO)NC(=O)[C@H](C)NC(=O)[C@H](C)NC(=O)CC[C@H](NC(=O)CCCCCCCCCCCCCCCCCCC(=O)O)C(=O)O)[C@@H](C)O)C(=O)NCC(=O)N[C@@H](CCCNC(=N)N)C(=O)N[C@@H](CC(C)C)C(=O)N[C@@H](CO)C(=O)N[C@@H](C)C(=O)N[C@@H](CCC(=O)O)C(=O)N[C@@H](CC(C)C)C(=O)N[C@@H](Cc1c[nH]cn1)C(=O)N[C@@H](CCC(=O)O)C(=O)N[C@@H](CC(C)C)C(=O)N[C@@H](C)C(=O)N[C@H](C(=O)N[C@@H](Cc1ccc(O)cc1)C(=O)N1CCC[C@H]1C(=O)N[C@@H](CCCNC(=N)N)C(=O)N[C@H](C(=O)N[C@@H](CCC(=O)O)C(=O)N[C@H](C(=O)NCC(=O)N[C@@H](CO)C(=O)NCC(=O)N[C@@H](CO)C(=O)N1CCC[C@H]1C(N)=O)[C@@H](C)O)[C@@H](C)O)[C@@H](C)O
B5: [des1, 19K(C20 diacid-gGlu), 30S, 31G]mimylin (peptide)
peptide: ASELSTAALGRLSAELHK([γGlu-C20 diacid])LATLPRTETGSGSP-NH2
modifications: N-terminus assumed
SMILES: CC(C)C[C@H](NC(=O)[C@H](C)NC(=O)[C@H](C)NC(=O)[C@@H](NC(=O)[C@H](CO)NC(=O)[C@H](CC(C)C)NC(=O)[C@H](CCC(=O)O)NC(=O)[C@H](CO)NC(=O)[C@H](C)N)[C@@H](C)O)C(=O)NCC(=O)N[C@@H](CCCNC(=N)N)C(=O)N[C@@H](CC(C)C)C(=O)N[C@@H](CO)C(=O)N[C@@H](C)C(=O)N[C@@H](CCC(=O)O)C(=O)N[C@@H](CC(C)C)C(=O)N[C@@H](Cc1c[nH]cn1)C(=O)N[C@@H](CCCCNC(=O)CC[C@H](NC(=O)CCCCCCCCCCCCCCCCCCC(=O)O)C(=O)O)C(=O)N[C@@H](CC(C)C)C(=O)N[C@@H](C)C(=O)N[C@H](C(=O)N[C@@H](CC(C)C)C(=O)N1CCC[C@H]1C(=O)N[C@@H](CCCNC(=N)N)C(=O)N[C@H](C(=O)N[C@@H](CCC(=O)O)C(=O)N[C@H](C(=O)NCC(=O)N[C@@H](CO)C(=O)NCC(=O)N[C@@H](CO)C(=O)N1CCC[C@H]1C(N)=O)[C@@H](C)O)[C@@H](C)O)[C@@H](C)O
B6: [des1, 16K(C20 diacid-gGlu), 30S, 31G]mimylin (peptide)
peptide: ASELSTAALGRLSAK([γGlu-C20 diacid])LHELATLPRTETGSGSP-NH2
modifications: N-terminus assumed
SMILES: CC(C)C[C@H](NC(=O)[C@H](C)NC(=O)[C@H](C)NC(=O)[C@@H](NC(=O)[C@H](CO)NC(=O)[C@H](CC(C)C)NC(=O)[C@H](CCC(=O)O)NC(=O)[C@H](CO)NC(=O)[C@H](C)N)[C@@H](C)O)C(=O)NCC(=O)N[C@@H](CCCNC(=N)N)C(=O)N[C@@H](CC(C)C)C(=O)N[C@@H](CO)C(=O)N[C@@H](C)C(=O)N[C@@H](CCCCNC(=O)CC[C@H](NC(=O)CCCCCCCCCCCCCCCCCCC(=O)O)C(=O)O)C(=O)N[C@@H](CC(C)C)C(=O)N[C@@H](Cc1c[nH]cn1)C(=O)N[C@@H](CCC(=O)O)C(=O)N[C@@H](CC(C)C)C(=O)N[C@@H](C)C(=O)N[C@H](C(=O)N[C@@H](CC(C)C)C(=O)N1CCC[C@H]1C(=O)N[C@@H](CCCNC(=N)N)C(=O)N[C@H](C(=O)N[C@@H](CCC(=O)O)C(=O)N[C@H](C(=O)NCC(=O)N[C@@H](CO)C(=O)NCC(=O)N[C@@H](CO)C(=O)N1CCC[C@H]1C(N)=O)[C@@H](C)O)[C@@H](C)O)[C@@H](C)O

Numbered stars: 1 amine (or outer) side, 2 acyl side, 3 side chain; on linkers, the order of the positions; unused ones are H or OH. Side chains are listed from the residue outwards. Ends that are not written are not given here. * marks the point of attachment. C20 diacid = O=C(O)CCCCCCCCCCCCCCCCCCC(=O)*; C18 diacid = O=C(O)CCCCCCCCCCCCCCCCC(=O)*; C16 diacid = O=C(O)CCCCCCCCCCCCCCC(=O)*; γGlu = O=C(O)[C@H](CCC(=O)[*:2])N[*:1]; C14 diacid = O=C(O)CCCCCCCCCCCCC(=O)*; AEEA = NCCOCCOCC(=O)O

The first experiment deals with T1, human calcitonin receptor. As to the kind of experiment: cell-based or functional assay.
Take B1: the “hCTR funct. EC50 (pM)” value stood at 10 pM.
Regarding {C14 diacid}-EASELSTAALGRLSAELHELATLPRTETGPESP-NH2 [[N-terminal(C14 diacid)]mimylin], the “hCTR funct. EC50 (pM)” value amounted to 2 pM.
Same read-out and setting: to {C14 diacid}-ASELSTAALGRLSAELHELATLPRTETGSGSP-NH2 [[N-terminal(C14 diacid), des1, 30S, 31G]mimylin] belongs 5 pM; to B2, 34 pM.
Regarding B3, the “hCTR funct. EC50 (pM)” value was 23 pM.
With {C14 diacid-γGlu-γGlu-AEEA-AEEA-AEEA-AEEA}-EASELSTAALGRLSAELHELATLPRTETGPESP-NH2 [[N-terminal(C14 diacid-2xgGlu-4xOEG)]mimylin], the “hCTR funct. EC50 (pM)” value was determined as 7 pM.
Take B4: the “hCTR funct. EC50 (pM)” value came out at 22 pM.
Still for that read-out and setting: to B5 belongs 19 pM.
B6: the “hCTR funct. EC50 (pM)” value was found to be 31 pM.
{C16 diacid}-ASELSTAALGRLSAELHELATLPRTETGSGSP-NH2 [[N-terminal(C16 diacid), des1, 30S, 31G]mimylin]: the “hCTR funct. EC50 (pM)” value turned out to be 10 pM.
Consider {C14 diacid-γGlu}-ASELSTAALGRLSAELHELATLPRTETGSGSP-NH2 [[N-terminal(C14 diacid-gGlu), des1, 30S, 31G]mimylin], for which the “hCTR funct. EC50 (pM)” value is 4 pM.

The next experiment has as its target T2, human amylin 3(a) receptor (human …). The experiment is described as follows: cell-based or functional assay.
Regarding B1, the “hAmylin-R funct. EC50 (pM)” value is 10 pM.
The same measure, in the same setting: for {C14 diacid}-EASELSTAALGRLSAELHELATLPRTETGPESP-NH2 [[N-terminal(C14 diacid)]mimylin] the value was 6 pM; for {C14 diacid}-ASELSTAALGRLSAELHELATLPRTETGSGSP-NH2 [[N-terminal(C14 diacid), des1, 30S, 31G]mimylin], 7 pM; for B2, 39 pM.
For B3, the “hAmylin-R funct. EC50 (pM)” value was 22 pM.
The same measure, in the same setting: to {C14 diacid-γGlu-γGlu-AEEA-AEEA-AEEA-AEEA}-EASELSTAALGRLSAELHELATLPRTETGPESP-NH2 [[N-terminal(C14 diacid-2xgGlu-4xOEG)]mimylin] belongs 27 pM; to B4, 20 pM; to B5, 28 pM.
In the case of B6, the “hAmylin-R funct. EC50 (pM)” value came to 22 pM.
For the molecule {C16 diacid}-ASELSTAALGRLSAELHELATLPRTETGSGSP-NH2 [[N-terminal(C16 diacid), des1, 30S, 31G]mimylin], the “hAmylin-R funct. EC50 (pM)” value is 10 pM.
With {C14 diacid-γGlu}-ASELSTAALGRLSAELHELATLPRTETGSGSP-NH2 [[N-terminal(C14 diacid-gGlu), des1, 30S, 31G]mimylin], the “hAmylin-R funct. EC50 (pM)” value was 6 pM.
